Experimental data reported in patent US7312058B2, “Mutant serine acetyltransferase” (priority 2003, dated 2007).

Assays:
E. coli strain MG1655 = test: L-cysteine production by test-tube fermentation of strains carrying a mutant cysE plasmid; type: cell-based
Text: The E. coli strain MG1655 (ATCC47076, ATCC700926) was used as a parental strain for evaluation of effect of enhanced expression of mutant cysE gene on L-cysteine production.
Plasmids pMW-PompC-cysEX (containing mutant cysEX gene encoding a mutant SAT in which Thr167 is replaced with Ala, which is described in the U.S. Pat. No. 6,218,168) and pMW-PompC-cysE5 were introduced into the E. coli strain MG1655. The resulting strains MG1655/pMW-PompC-cysEX and MG1655/pMW-PompC-cysE5 were cultivated overnight with shaking at 34° C. in 2 ml of nutrient broth supplemented with 100 mg/l of ampicillin. 0.2 ml of the obtained cultures were inoculated into 2 ml of a fermentation medium containing ampicillin (100 mg/l) in 20×200 mm test tubes, and cultivated at 34° C. for 42 hours with a rotary shaker at 250 rpm. The composition of the fermentation medium was the following: 15.0 g/l of (NH4)2SO4, 1.5 g/l of KH2PO4, 1.0 g/l of MgSO4, 20.0 g/l of CaCO3, 0.1 mg/l of thiamine, 1% of LB, 4% of glucose, 300 mg/l of L-methionine and 0.5 g/l of Na2S2O3.
After cultivation, the amount of L-cysteine which had accumulated in the medium was determined by the method described by Gaitonde, M. K. (Biochem. J., 104:2, 627-33 (1967)).

[1] = system: serine acetyltransferase (SAT)
Experimental: Acetyl coenzyme A and other chemicals used were from Sigma Chemical Co. (St. Louis, Mo., USA).
The cells were sonicated and the pellet was separated by centrifugation at 13000 rpm. The SAT-containing protein fractions in the resulting supernatant were precipitated by 5 volumes of saturated (NH4)2SO4 and pellets were dissolved in 2 ml of buffer (pH 7.5, 50 mM potassium phosphate and 100 mM KCl). The obtained solution was added to 0.1 ml of reaction mixture (500 mM Tris-HCl (pH 8.5), 5 mM L-serine, 0.1 mM acetyl coenzyme A) and incubated at 37° C. for 10 min. The reaction was stopped by adding 0.3 ml of ethanol followed by centrifugation at 13000 rpm. 0.95 ml of 0.24 mM DTNB (5,5-dithio-bis-2-nitrobenzoate) solution was added to supernatant and mixture was incubated for 15 min. The SAT activity was assayed by measuring the absorbance at 412 nm.

**Q.** For “cysE5 (RTRDPARP; randomized region of SAT protein only)”, which “effect of overexpression on cysteine productivity” value (E. coli strain MG1655) is on record?
**A.** improved cysteine productivity

**Q.** And the “Residual activity in presence 25 μM cysteine, %” value ([1]; 25 μM cysteine)?
**A.** 100%

**Q.** What about the “Specific activity, relative units” value ([1]; protein fraction from LE392 cysE::KmR carrying the plasmid, 5 mM L-serine, 0.1 mM acetyl coenzyme A, 37° C., 10 min) of the same substance?
**A.** 900 relative units

**Q.** What about the “sensitivity to feedback inhibition by L-cysteine” value ([1]; statement from Table 2 and FIG. 5) of the same substance?
**A.** no sensitivity to feedback inhibition by L-cysteine
